This sample holds only a part of the variants without activity.
B1: TPR 5TU (parent)
chain: GGAUCUUCUCGAUCUAACAAAAAAGACAAAUCUGCCACAAAGCUUGAGAGCAUCUUCGGAUGCAGAGGCGGCAGCCUUCGGUGGCGCGAUAGCGCCAACGUUCUCAACUAUGACACGCAAAACGCGUGCUCCGUUGAAUGGAGUUUAUCAUG

Variants of: B1
Assay: polymerase ribozyme fitness, log enrichment relative to wild type (log ratio); higher = more active; in vitro selection for triplet polymerase activity
Procedure, shortened: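 Each subunit of a heterodimeric triplet polymerase ribozyme was represented by a PCR-built, transcribed mutant library that underwent triplicate single-round in vitro selection with frozen incubation at −7 °C. Extended constructs were recovered by gel excision, streptavidin-bead capture and RT-PCR, and Illumina sequencing of input and output libraries kept genotypes with ≥10 input reads and ≥1 read per output. Fitness is the logarithm of genotype enrichment relative to wild-type enrichment, from inverse-variance-weighted replicate averages, with a logarithm base of 2.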

Row | Variant | polymerase ribozyme fitness (log ratio)
1 | G58U G84A | -0.866
2 | A29C C87U G94U A107C U127G G140A | ≤ -4.2
3 | C10G C96G | -3.62
4 | G71A C132U | -3.5
5 | U61A U77G C85U C125A | ≤ -4.2
6 | A41U A47C G59U U61A A66U C85G A107C U148C | ≤ -4.2
7 | C18G C38U C72U | -0.0428
8 | A22U G59A U101A | 0.375
9 | C38U A66G | ≤ -4.2
10 | C5A C57A C76U G81A G92C C132U | -2.21
11 | C14G U56A C96U | -3.43
12 | U31A A91G A106G G117A A119U U146C | -1.71
13 | U61A G84A U134A | -3.68
14 | A19G C38U A40C C79A G86U C96G | ≤ -4.2
15 | C27U C95A A138G | ≤ -4.2
16 | C5A A23C C85U G88A C105U A120G | ≤ -4.2
17 | C5A C75U U90C A91G A150G | ≤ -4.2
18 | G34A C85A | -3.37
19 | C57U U127A U151G | ≤ -4.2
20 | U44A G50U C75G C79U C87A C125U | ≤ -4.2
21 | C10U G67C | ≤ -4.2
22 | A30G C54U A91U U102G U109G A110G G133C A147U | ≤ -4.2
23 | A16G A37U G92U | -2.9
24 | A22U C38U A73U C96U | 0.145

Row | Variant | polymerase ribozyme fitness (log ratio)
25 | C32A G94A | -4
26 | C54G C87U A122G U145C | -1.82
27 | A41U A52U U55C A66U | ≤ -4.2
28 | A23U G70U U78A G94A C95U C114U | ≤ -4.2
29 | G11A C96G | -1.49
30 | A20U G94A G112A | -3.86
31 | C10U A52C U55A A97G A98G C129U | ≤ -4.2
32 | G11A G59C | -0.989
33 | A26U C51U A89G C105G U134G U144A | ≤ -4.2
34 | G94C U101A C105G G141C | ≤ -4.2
35 | A29C C108A A142U | ≤ -4.2
36 | A23G C103A | -3.88
37 | U102A A119C G141C | -2.4
38 | A89G A98G C99G | -2.3
39 | A16C A21U G59A G94A A98G | -2.66
40 | C87A G88C C96U C118U U146C | ≤ -4.2
41 | A17G A41G C54U | 0.908
42 | A40C C85U G124U | -0.182
43 | A24G C79A C96A G141A | ≤ -4.2
44 | U44A C95A | -4.11
45 | C38U G67A C69G G94A | ≤ -4.2
46 | G59C C79A C93U | ≤ -4.2
47 | A23C A24U U61C G83A G112U U127G | ≤ -4.2
48 | C54G G74C G80A C96U A138U | ≤ -4.2

Row | Variant | polymerase ribozyme fitness (log ratio)
49 | C76U A119U | -0.561
50 | A21U C87A | -3.82
51 | G50U G81A C93G | -3.96
52 | C76U U102G | -2.89
53 | A22C C69U C93U | -1.59
54 | C35U U45G G58A U61G C76U C85A C93G U104A A107C G152A | ≤ -4.2
55 | A26C C32U G48C G143A | ≤ -4.2
56 | A3U C8G C51A A89G U90G A120U G133C | ≤ -4.2
57 | C14G C87G | ≤ -4.2
58 | A24U G83C C99G | -4.19
59 | C76U G86C | -0.716
60 | A20C G86C C87U G88A C95G | ≤ -4.2
61 | G83C U102G | -4.12
62 | U53A C118U | -1.08
63 | A29U A40C U56A G88A A121U G126A G136A | -3.9
64 | C54U U56A C93U G133U | -4.06
65 | G86A U111C | -3.31
66 | G94C U127A | -3.75
67 | G50A U56A C95U | -1.99
68 | U53A C54G G67C C118U U130A | ≤ -4.2
69 | A28U G133U A137C | ≤ -4.2
70 | A52U C57A C63U G94U A150G | ≤ -4.2
71 | A52U G58U U90C C118U G126C A138C | ≤ -4.2
72 | U15A A23U A39C A47U C96G G141U | ≤ -4.2

Row | Variant | polymerase ribozyme fitness (log ratio)
73 | A23G U127G | ≤ -4.2
74 | G59A G70C | -2.8
75 | C5A G59U C69U G94U A98G U102G U135C | ≤ -4.2
76 | C54U G59A C76A C85U | 0.107
77 | C116A G136A | 1.97
78 | A47G G50U C85G | -3.89
79 | A30C C75G G81U C87U A120U | -4.16
80 | A91C U109C | ≤ -4.2
81 | G46U U55G C76A A89G A106U | ≤ -4.2
82 | G58C A66G | -3.76
83 | U45C U56A A64C G74A G94C C114U A115U | ≤ -4.2
84 | C5A U6C A30U A91U C118A A138G | ≤ -4.2
85 | G88A A97U U102C | ≤ -4.2
86 | U15A G84A C93A U134G | -4.09
87 | C10U A16U C18U G71C C108G | ≤ -4.2
88 | G62A C85U A115U G141U | -1.19
89 | A52U G59A U82G U145A U146C | -0.208
90 | G42U C76A G81A G124C | ≤ -4.2
91 | U55G C93U C116U G141A U144G | -2.63
92 | C14U A26G C38U U61G C87A U90A | -3.51
93 | C18G A40U A47U U101G | -0.397
94 | U44A C95U A97U | ≤ -4.2
95 | C27G C76U G83A C85G A107U A119U G141A | ≤ -4.2
96 | C35U A52C U90A C95U A122C | ≤ -4.2

Row | Variant | polymerase ribozyme fitness (log ratio)
97 | C51U A52U G94U | -2.8
98 | A40U C103A U139G U146A | -2.67
99 | G42C C95U | -4.14
100 | A39G G46A U56A C93U C108A | ≤ -4.2
101 | C14A A115G | -2.5
102 | A22G A30U G65C G136A | ≤ -4.2
103 | G34A C36U A60C G71A G84A | ≤ -4.2
104 | C8A C87A C99U | ≤ -4.2
105 | C14U G42A G59A C87A | ≤ -4.2
106 | C57U A73U | -0.507
107 | G46A | -0.076
108 | C27G A39G A89C G92A U127A | -4.11
109 | C8A A20C A22G G42C U53A C95U | ≤ -4.2
110 | G11C A16U G42U A113C | ≤ -4.2
111 | G25A G68U U78C A91G C114G | ≤ -4.2
112 | U45A A66G G80A A142G | ≤ -4.2
113 | C79A C93U A119G G133C | ≤ -4.2
114 | G83A C93U A107G | ≤ -4.2
115 | A41G A66C A89C G92U A97U G124U | ≤ -4.2
116 | C36U C76U G124U | -1.95
117 | A20U C35G A49C G94A G100C A119U A120G U134C | ≤ -4.2
118 | U44G U45G A97C | ≤ -4.2
119 | A23G C32G A52U C85A U102G U127G | ≤ -4.2
120 | A49G G50C U77A G92A C103G G117U | ≤ -4.2

Row | Variant | polymerase ribozyme fitness (log ratio)
121 | A40C G88A A91G U144G | ≤ -4.2
122 | U44A U82C C85A | ≤ -4.2
123 | C54A A89G U90A C99G | ≤ -4.2
124 | C96U U101G | 0.195
125 | G11U A29C C35U U45A A66G A91U | -3.98
126 | C57A A97U G124A G140U | -4.13
127 | A64C A66C C125U | ≤ -4.2
128 | A60G U101A G141U A147C | -4.13
129 | C18U U31C A89C C93A G140U | ≤ -4.2
130 | U31C C32A C38U U56A G86A A98U | -4.14
131 | G59U C76G A91G A106C C114U C125U G128A G143U | ≤ -4.2
132 | A28G A47U A49C C85A G136C U146G | ≤ -4.2
133 | A73U A97U A115G | -3.45
134 | A3U U56A G83A C85U A91G C95U C99A U144G | ≤ -4.2
135 | G83C A113U U145C | -3.3
136 | C36A C57A C99G A106U A115C | ≤ -4.2
137 | A60G C93U C95A U145A | -1.82
138 | C87A A91C | ≤ -4.2
139 | A19U C93A | -2.7
140 | A52C A91C | ≤ -4.2
141 | C36U C85U | -1.83
142 | U53A A73U C85U G124U U134C U135C | ≤ -4.2
143 | G11U C38G G46A | -2.87
144 | C18G | -0.169

Row | Variant | polymerase ribozyme fitness (log ratio)
145 | A29G G68C C96U U102G U135G C149A | ≤ -4.2
146 | A17G A39G C57A C96A | -2
147 | C75G G88A A98U C103U | ≤ -4.2
148 | C10G C63G C79U C85G C99A A107G A121U G143A | ≤ -4.2
149 | C43U C116G | -3.65
150 | U7A G42U C76G C96G C99A U144A C149G | ≤ -4.2
151 | U13C A40G C43U C87U G128C U139A | ≤ -4.2
152 | C14U C76G | ≤ -4.2
153 | A21G A29C G88A G92C C96G U102G A107U | ≤ -4.2
154 | C54G G86A C129G | -3.8
155 | A16U A17C A24G A49G C76A C87A C99G | ≤ -4.2
156 | U56G C69U A91U C105G U130A | ≤ -4.2
157 | A24U C36G U111C C116A | ≤ -4.2
158 | G50C G86U | -3.89
159 | G59A C85A | -1.04
160 | A89G A121G C131G | -3.53
161 | G83C C99G | -3.88
162 | C57A C85U U146C | -0.426
163 | U33G A41U C51A G67C C72U | -3.95
164 | U4A A66C A89U C93A C125G G143A | ≤ -4.2
165 | A49U U82G C105U C116U U145A | -2.58
166 | G25A C85A C95U | -2.49
167 | A52C C87A G88U U135C | ≤ -4.2
